# Paper PMC4340053, “The DEAH-box Helicase Dhr1 Dissociates U3 from the Pre-rRNA to Promote Formation of the Central Pseudoknot” (PLoS Biology, 2015)
# Positions count from the first letter of the chain named. Names may count otherwise.
# B1: Dhr1 (Ecm16) (Saccharomyces cerevisiae S288C) (protein)
# chain: MGTYRKRFNEKARSGHMAKLKELKRIRNKQFTRQDENDERVENPDSAPAESSTTEPNANAEILEPLTEEEKKMKKRKLQELFTPKESKVSRLKKKRLDKFIEHQLKREERKTIIGKLQDYKIDTSLLTSSKRLGEGRQTKKEEFKEALSLERQGRGNEQTNEILYEEYEPKVWDEYGEGGSSEDDDGEDDFEASFGSMPKPTDNEEKKSSGFIDHRPAKFGGSGLSFGFSNIKVINKESKTPKKKYNWRQRVEMEELKKHGKEDEMDFDTTSEDDDEEEDQEEEDKMHPSENPLEEVESADSETGSEKFDQNDVANEFKDWANQEIKKLEGRDQELVTPTLNIDYKPIIRKEDLDDGLQEAYVPINENSTRKAFYVEVSRSDEIQKARIQLPVFGEEHKIMEAIHHNDVVIICGETGSGKTTQVPQFLYEAGFGAEDSPDYPGMVGITQPRRVAAVSMAERVANELGDHGHKVGYQIRFDSTAKEDTKVKFMTDGVLLREMMHDFKLTKYSSIIIDEAHERNINTDILIGMLSRCVRLRAKLHKENPIEHKKLKLIIMSATLRVSDFSENKTLFPIAPPVLQVDARQFPVSIHFNRRTAFNYTDEAFRKTCKIHQKLPPGAILVFLTGQQEITHMVKRLRKEFPFKKNSKYNKDLETPVSKMGINSKTTDLEAEDIDFSVQVIDQDKFKSAIRYEEDEGNSGNGEDEEDEEEEGFEEVLTEGQTANDPLYVLPLYSLLPTKEQMRVFQKPPQGSRLCIVATNVAETSLTIPGVRYVVDSGRSKERKYNESNGVQSFEVGWVSKASANQRSGRAGRTGPGHCYRLYSSAVFEHDFEQFSKPEILRMPVESIVLQMKSMAIHNIINFPFPTPPDRVALSKAIQLLQYLGALDNKEMITEDGKKMSLFPLSPRFSKMLLVSDEKACLPYIVAIVSALSVGDPFINEFELGINEISRKPNPDENLDDKIREHDESTPGMDPELKKELRSKFYKSRSQFSKLDKFSDVFRLLSVVSAMDYVPKEQKEIFMKKNFLRGKLMEEIVKLRKQLMYIIKSNTSKENIAVVIRNEDLKSDIPSVIQIKLLKQMICAGFVDHVAVRADVLFPDDAKITNRTSIINIPYIPVLATRTPNIEDCFVYIHPTSILNNLGEMPPKYMLYYSLHLGGNNKTRMNTLCDIASTPLANIARKGLLLTYSKPLTGQGLKTVNLSPTERYCYVVPRFGSTVDNDLKIGWDLNPIAVHQKKQKGQWTVIKFITRKGFQTITGEEKEKK
# notes: full-length with C-terminal Leu-Glu-6xHis (pAJ2312), tag kept; expressed in E. coli BL21 Star (DE3), RNase-treated, Ni-NTA and SP HiTrap
# B2: Dhr1 (Ecm16) (Saccharomyces cerevisiae S288C; K420A) (protein)
# chain: B1 chain with K420A
# notes: as for B1
# B3: Dhr1 (Ecm16) (Saccharomyces cerevisiae S288C; D516A/E517A) (protein)
# chain: B1 chain with D516A, E517A
# notes: as for B1
# Substrate: Nc1ncnc2c1ncn2[C@@H]1O[C@H](COP(=O)(O)OP(=O)(O)OP(=O)(O)O)[C@@H](O)[C@H]1O
# Assay: purified protein
# Format: biochemical, Saccharomyces cerevisiae
# Conditions: poly(A) RNA present, equimolar MgCl2, pH 8.0, room temperature
Protein,Km,kcat
B1,106 µM,13 min⁻¹
B2,1000 µM,3 min⁻¹
B3,136 µM,1.8 min⁻¹
